Measurements as given in article PMC11922060.

Molecular target: Sumo-tagged Drosophila Spd-2 C-terminal half (Spd-2 697-1146) P817D, phosphorylated in vitro by human PLK1 (UniProt Q9VV79)
Assay: SEC-MALS
Conditions: 50 µM protein, phosphorylated in vitro with recombinant human PLK1 kinase; parent: est. 0.50; read off a plot

Chain of UniProt Q9VV79 (Q9VV79 entry or part of it P817D | P817D): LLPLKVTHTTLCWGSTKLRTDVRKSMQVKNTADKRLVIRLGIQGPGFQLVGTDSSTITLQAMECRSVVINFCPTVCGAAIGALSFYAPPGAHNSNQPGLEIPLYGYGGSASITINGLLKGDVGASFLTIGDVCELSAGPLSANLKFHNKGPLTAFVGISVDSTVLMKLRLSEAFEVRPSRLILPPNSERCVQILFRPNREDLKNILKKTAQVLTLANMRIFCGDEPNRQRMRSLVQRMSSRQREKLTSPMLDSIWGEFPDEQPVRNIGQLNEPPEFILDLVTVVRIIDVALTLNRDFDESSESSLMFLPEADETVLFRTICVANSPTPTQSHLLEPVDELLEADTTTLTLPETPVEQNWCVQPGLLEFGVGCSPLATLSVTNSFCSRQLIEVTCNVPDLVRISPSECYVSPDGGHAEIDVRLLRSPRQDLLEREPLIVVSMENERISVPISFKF

Sumo-tagged Drosophila Spd-2 C-terminal half (Spd-2 697-1146), wild type, phosphorylated in vitro by human PLK1 (from UniProt Q9VV79) P817D
response: 0.14
